± gives the standard error. For part of these data: This sample holds only a part of the variants without activity.
B1: glmS ribozyme (parent)
chain: AUAAAAGCGCCAGAACUACAGAAAUGUAGUUGACGAGGAGGAGGUUUAUCGAAUUUUCGGCGGAUGCCUCCAAA

Assays:
Settings in all cases: with glucosamine-6-phosphate
glucosamine-6-phosphate [1] = variants of: B1; assay: kcat; higher = faster cleavage; RNA array
Outline: (§1)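 Weighted Michaelis–Menten fits across concentrations supplied kcat and KM, based on kobs from one- or two-exponential decay fits to normalised per-tile medians. The data came from barcoded ribozyme variants transcribed in situ by E. coli RNA polymerase on sequenced MiSeq chips and tracked at 37 °C by a hybridised Cy3 probe. Glucosamine-6-phosphate (40 μM to 10 mM) in HEPES/KCl/Mg(OAc)2 buffer was flowed in.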

glucosamine-6-phosphate [2] = variants of: B1; assay: KM; higher = weaker cofactor use; RNA array
Outline: as §1

glucosamine-6-phosphate [3] = variants of: B1; assay: self-cleavage kobs at 160 uM GlcN6P; higher = faster cleavage; RNA array
Outline: as §1

glucosamine-6-phosphate [4] = variants of: B1; assay: self-cleavage kobs at 640 uM GlcN6P; higher = faster cleavage; RNA array
Outline: as §1

glucosamine-6-phosphate [5] = variants of: B1; assay: self-cleavage kobs at 2500 uM GlcN6P; higher = faster cleavage; RNA array
Outline: as §1

glucosamine-6-phosphate [6] = variants of: B1; assay: self-cleavage kobs at 10000 uM GlcN6P; higher = faster cleavage; RNA array
Outline: as §1

glucosamine-6-phosphate [7] = variants of: B1; assay: self-cleavage kobs at 40 uM GlcN6P; higher = faster cleavage; RNA array
Outline: as §1

Variant | kcat (glucosamine-6-phosphate [1]) [s⁻¹] | KM (glucosamine-6-phosphate [2]) [µM] | self-cleavage kobs at 160 uM GlcN6P (glucosamine-6-phosphate [3]) [s⁻¹] | self-cleavage kobs at 640 uM GlcN6P (glucosamine-6-phosphate [4]) [s⁻¹] | self-cleavage kobs at 2500 uM GlcN6P (glucosamine-6-phosphate [5]) [s⁻¹] | self-cleavage kobs at 10000 uM GlcN6P (glucosamine-6-phosphate [6]) [s⁻¹] | self-cleavage kobs at 40 uM GlcN6P (glucosamine-6-phosphate [7]) [s⁻¹]
U54A C58A | 0.000802 ± 0.00016 | 5450 ± 1700 | 2.83e-05 ± 1.3e-05 | 9.65e-05 ± 1.3e-05 | 0.000217 ± 2.9e-05 | 0.000547 ± 5.7e-05 | –
U57A G66U | 2.06e-05 ± 1.5e-06 | – | – | – | – | – | < 1e-05
C58U C67G | 3.65e-05 ± 2.5e-06 | – | – | 3.77e-05 ± 1.5e-05 | 3.68e-05 ± 1.4e-05 | 3.45e-05 ± 9.2e-06 | –
C58G C68U | 4.76e-05 ± 7e-06 | – | 7.05e-05 ± 1.9e-05 | 5.45e-05 ± 1.2e-05 | 4.14e-05 ± 1.3e-05 | 4.34e-05 ± 7.8e-06 | –
U54C G66A | 0.011 ± 0.0023 | 1100 ± 320 | 0.00112 ± 0.0004 | 0.00522 ± 0.0011 | 0.00593 ± 0.0014 | 0.0118 ± 0.0022 | 0.000397 ± 5.3e-05
U56A C71G | 0.00102 ± 0.00013 | 1010 ± 210 | 0.000119 ± 1.8e-05 | 0.000396 ± 4.5e-05 | 0.000715 ± 9.6e-05 | 0.000952 ± 0.0001 | 5.19e-05 ± 8e-06
U54G C68G | 0.0001 ± 1e-05 | 89.1 ± 43 | 6.82e-05 ± 8.7e-06 | 0.000111 ± 1.1e-05 | 8.41e-05 ± 9.1e-06 | 9.69e-05 ± 8.7e-06 | 2.37e-05 ± 7.3e-06
C61A C71U | 1.05e-05 ± 3.5e-06 | – | – | < 1e-05 | – | – | –
U56A U57C | 0.00014 ± 3.4e-06 | 2030 ± 160 | – | – | 7.84e-05 ± 1.5e-05 | 0.000115 ± 1.5e-05 | < 1e-05
U55C C61G | < 1e-05 | – | – | – | – | < 1e-05 | < 1e-05
U57A G60C | 2.43e-05 ± 9.7e-06 | – | – | – | – | – | –
U57A U69G | 4.58e-05 ± 6.6e-06 | – | 3.35e-05 ± 1.6e-05 | 5.15e-05 ± 1.3e-05 | 3.88e-05 ± 1.3e-05 | – | –
U56A G66A | 0.00503 ± 0.0023 | – | 0.00039 ± 6.4e-05 | 0.00117 ± 0.00021 | 0.00253 ± 0.00043 | 0.00718 ± 0.0011 | 0.000167 ± 1.7e-05
C61G C71U | < 1e-05 | – | – | – | – | < 1e-05 | < 1e-05
A53U U56A | 0.00699 ± 0.0012 | 1820 ± 450 | 0.000573 ± 8e-05 | 0.00169 ± 0.0002 | 0.00313 ± 0.00052 | 0.00667 ± 0.00065 | 0.000172 ± 2.1e-05
U55A G59U | 1.92e-05 ± 2.2e-06 | – | – | – | < 1e-05 | – | –
G60U G66U | < 1e-05 | – | < 1e-05 | < 1e-05 | – | < 1e-05 | –

Variant | kcat (glucosamine-6-phosphate [1]) [s⁻¹] | KM (glucosamine-6-phosphate [2]) [µM] | self-cleavage kobs at 160 uM GlcN6P (glucosamine-6-phosphate [3]) [s⁻¹] | self-cleavage kobs at 640 uM GlcN6P (glucosamine-6-phosphate [4]) [s⁻¹] | self-cleavage kobs at 2500 uM GlcN6P (glucosamine-6-phosphate [5]) [s⁻¹] | self-cleavage kobs at 10000 uM GlcN6P (glucosamine-6-phosphate [6]) [s⁻¹] | self-cleavage kobs at 40 uM GlcN6P (glucosamine-6-phosphate [7]) [s⁻¹]
G60U G66C | < 1e-05 | – | – | – | – | < 1e-05 | –
U56G U65G | 0.00371 ± 0.00083 | 7360 ± 2500 | – | 0.000301 ± 6e-05 | 0.000811 ± 0.00023 | 0.00218 ± 0.00031 | 3.29e-05 ± 1.6e-05
U56G C68A | 2.79e-05 ± 2.6e-06 | – | – | – | 2.72e-05 ± 1.3e-05 | – | –
U54C U65G | 0.00585 ± 0.0014 | 5410 ± 1800 | 0.000122 ± 2.6e-05 | 0.000671 ± 0.00011 | 0.00207 ± 0.00032 | 0.00371 ± 0.00042 | 5.43e-05 ± 8.6e-06
G59C C68G | 2.78e-05 ± 1e-05 | – | – | – | – | – | –
U54G U69A | 0.000109 ± 1.4e-05 | – | – | 0.000146 ± 3e-05 | 9.9e-05 ± 1.8e-05 | 0.000103 ± 1.9e-05 | 5.13e-05 ± 1.4e-05
C58U A64C C70A | 1.83e-05 ± 1.5e-06 | 363 ± 120 | – | – | – | – | < 1e-05
G59A G63U | < 1e-05 | 294 ± 68 | – | – | < 1e-05 | – | < 1e-05
U55G A64C | 0.000152 ± 1.4e-05 | 1210 ± 350 | – | 5.93e-05 ± 1.7e-05 | 9.39e-05 ± 1.5e-05 | 0.000143 ± 2e-05 | –
C58A G60C C67G | 1.21e-05 ± 3.8e-06 | – | – | – | – | – | –
C58A C71U | 0.00051 ± 0.0001 | 3890 ± 1200 | 4.42e-05 ± 1.2e-05 | 7.43e-05 ± 7.2e-06 | 0.000183 ± 1.6e-05 | 0.000386 ± 3.2e-05 | –
C61G U69C | 6.05e-05 ± 1.7e-05 | – | 6.31e-05 ± 1.1e-05 | 5.44e-05 ± 1.3e-05 | 7.59e-05 ± 1.2e-05 | – | –
A53U C70G | 0.000152 ± 2.3e-05 | 168 ± 74 | 6.88e-05 ± 7.7e-06 | 0.000133 ± 1.5e-05 | 0.000136 ± 2.3e-05 | 0.000142 ± 2.6e-05 | 8.15e-05 ± 2.5e-05
U57C A64G | 0.000236 ± 3.1e-06 | 3140 ± 87 | – | 3.93e-05 ± 7.8e-06 | 0.000106 ± 1.3e-05 | 0.000179 ± 1.7e-05 | –
G60C C70G | 2.59e-05 ± 9.4e-06 | – | – | – | – | < 1e-05 | < 1e-05
U56G G66C | 0.000388 ± 2.1e-05 | 1800 ± 300 | – | 9.51e-05 ± 3.1e-05 | 0.000244 ± 4.9e-05 | 0.000325 ± 3.9e-05 | –
